This is an account of results in paper PMC2396850.

The target of the experiment is various tetraspanins. Description: co-IP.

B1: Tumour-associated antigen L6 (L6-Ag), endogenous (natural protein)
chain: MCYGKCARCIGHSLVGLALLCIAANILLYFPNGETKYASENHLSRFVWFFSGIVGGGLLMLLPAFVFIGLEQDDCCGCCGHENCGKRCAMLSSVLAALIGIAGSGYCVIVAALGLAEGPLCLDSLGQWNYTFASTEGQYLLDTSTWSECTEPKHIVEWNVSLFSILLALGGIEFILCLIQVINGVLGGICGFCCSHQQQYDC
The molecule B1 came in with a percent of the total L6-Ag co-immunoprecipitated (% of the total L6-Ag) of 10 to 15.
